Data reported in patent US20230227547A1 (IPROGEN BIOTECH, published 2023).

Assays:
[1] = target: T1, sodium-dependent phosphate transport protein 2B (NaPi2b) (human, UniProt O95436 1-690); assay: fluorescence microscopy, goat anti-human IgG-AlexaFluor488, OVCAR3 cells, 100 nM mAb, 3 h
T1 construct: whole, on cells
T1 sequence (looked up): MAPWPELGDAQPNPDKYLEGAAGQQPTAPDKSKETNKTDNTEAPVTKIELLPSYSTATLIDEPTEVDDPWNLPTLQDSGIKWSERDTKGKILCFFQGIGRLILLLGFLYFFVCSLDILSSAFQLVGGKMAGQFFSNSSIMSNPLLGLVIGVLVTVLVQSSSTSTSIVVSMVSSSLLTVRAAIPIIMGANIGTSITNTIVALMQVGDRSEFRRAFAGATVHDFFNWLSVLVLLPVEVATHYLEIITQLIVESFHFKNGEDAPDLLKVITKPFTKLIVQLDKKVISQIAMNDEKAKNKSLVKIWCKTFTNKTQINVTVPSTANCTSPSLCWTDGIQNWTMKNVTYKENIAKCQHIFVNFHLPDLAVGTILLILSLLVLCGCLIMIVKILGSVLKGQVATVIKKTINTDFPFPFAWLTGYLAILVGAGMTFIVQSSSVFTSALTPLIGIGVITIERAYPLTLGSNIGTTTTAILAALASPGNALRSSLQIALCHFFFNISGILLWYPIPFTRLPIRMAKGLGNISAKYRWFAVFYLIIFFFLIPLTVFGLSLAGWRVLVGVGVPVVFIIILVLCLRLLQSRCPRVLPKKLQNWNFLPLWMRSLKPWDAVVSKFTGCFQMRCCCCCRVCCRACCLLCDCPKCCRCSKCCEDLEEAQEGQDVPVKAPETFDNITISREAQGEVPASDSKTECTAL

[2] = target: T2, Epithelial cell adhesion molecule (EpCAM) (human, UniProt P16422 24-314); assay: fluorescence microscopy, goat anti-human IgG-AlexaFluor488, LnCap cells, 100 nM mAb, 3 h
T2 construct: whole, on cells
T2 sequence (looked up): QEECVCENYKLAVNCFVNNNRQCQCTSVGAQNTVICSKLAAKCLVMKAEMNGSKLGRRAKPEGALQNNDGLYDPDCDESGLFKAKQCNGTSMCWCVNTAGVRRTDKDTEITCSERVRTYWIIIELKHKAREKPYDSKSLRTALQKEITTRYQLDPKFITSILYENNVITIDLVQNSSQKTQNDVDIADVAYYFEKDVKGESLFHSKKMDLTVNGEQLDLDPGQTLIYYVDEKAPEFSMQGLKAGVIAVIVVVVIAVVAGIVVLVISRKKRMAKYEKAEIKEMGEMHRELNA

[3] = target: T2, Epithelial cell adhesion molecule …; assay: fluorescence microscopy, goat anti-human IgG-AlexaFluor488, LnCap cells, 100 nM mAb-LL37, 3 h
folate receptor = target: T3, folate receptor (human, UniProt P15328 25-234); assay: summary sentence of Example 3
T3 construct: whole, on cells; also called folate receptor alpha

[4] = target: T1, sodium-dependent phosphate transport …; assay: fluorescence microscopy, goat anti-human IgG-AlexaFluor488, OVCAR3 cells, 100 nM mAb-LL37, 3 h
CD33A = target: T4, CD33A (human, UniProt P20138 18-364); assay: summary sentence of Example 3
T4 construct: whole, on cells
T4 sequence (P20138 18-364): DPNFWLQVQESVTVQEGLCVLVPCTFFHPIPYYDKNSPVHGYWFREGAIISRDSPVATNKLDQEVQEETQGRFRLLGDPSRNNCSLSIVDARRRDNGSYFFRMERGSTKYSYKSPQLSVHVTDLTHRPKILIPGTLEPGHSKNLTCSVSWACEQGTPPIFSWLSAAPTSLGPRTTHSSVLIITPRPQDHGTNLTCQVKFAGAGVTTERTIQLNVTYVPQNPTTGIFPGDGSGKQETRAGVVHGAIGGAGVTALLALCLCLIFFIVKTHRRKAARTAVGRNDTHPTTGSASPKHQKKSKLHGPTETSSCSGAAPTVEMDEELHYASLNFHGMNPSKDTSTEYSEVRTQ

T3 sequence (P15328 25-234): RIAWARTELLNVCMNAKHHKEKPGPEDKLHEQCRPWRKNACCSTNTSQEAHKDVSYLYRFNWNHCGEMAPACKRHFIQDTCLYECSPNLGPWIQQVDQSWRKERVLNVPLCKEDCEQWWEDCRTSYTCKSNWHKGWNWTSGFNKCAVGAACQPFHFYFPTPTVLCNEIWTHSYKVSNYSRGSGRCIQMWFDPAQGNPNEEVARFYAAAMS

B1: Anti-NaPi2b mAb, Lifastuzumab (antibody, human IgG1, kappa)
heavy: not shown
light: DIQMTQSPSSLSASVGDRVTITCRSSETLVHSSGNTYLEWYQQKPGKAPKLLIYRVSNRFSGVPSRFSGSGSGTDFTLTISSLQPEDFATYYCFQGSFNPLTFGQGTKVEIKRTVAAPSVFIFPPSDEQLKSGTASVVCLLNNFYPREAKVQWKVDNALQSGNSQESVTEQDSKDSTYSLSSTLTLSKADYEKHKVYACEVTHQGLSSPVTKSFNRGECGGGGSLPMTGGHG
B1: binds [1].

B2: Anti-EpCAM mAb, Citatuzumab (antibody, human IgG1, kappa)
heavy: not shown
light: DIQMTQSPSSLSASVGDRVTITCRSTKSLLHSNGITYLYWYQQKPGKAPKLLIYQMSNLASGVPSRFSSSGSGTDFTLTISSLQPEDFATYYCAQNLEIPRTFGQGTKVEIKRTVAAPSVFIFPPSDEQLKSGTASVVCLLNNFYPREAKVQWKVDNALQSGNSQESVTEQDSKDSTYSLSSTLTLSKADYEKHKVYACEVTHQGLSSPVTKSFNRGECGGGGSLPMTGGHG
B2: binds [2].

B3: Citatuzumab-LL37 (LL37-conjugated anti-EpCAM antibody citatuzumab) (antibody, human IgG1, kappa)
heavy: not shown
light: DIQMTQSPSSLSASVGDRVTITCRSTKSLLHSNGITYLYWYQQKPGKAPKLLIYQMSNLASGVPSRFSSSGSGTDFTLTISSLQPEDFATYYCAQNLEIPRTFGQGTKVEIKRTVAAPSVFIFPPSDEQLKSGTASVVCLLNNFYPREAKVQWKVDNALQSGNSQESVTEQDSKDSTYSLSSTLTLSKADYEKHKVYACEVTHQGLSSPVTKSFNRGECGGGGSLPMTGGLLGDFFRKSKEKIGKEFKRIVQRIKDFLRNLVPRTES
B3: binds [3].

B4: Anti-folate receptor mAb-LL37 (Mirvetuximab-LL37) (antibody, human IgG1, kappa)
heavy: not shown
light: DIVLTQSPLSLAVSLGQPAIISCKASQSVSFAGTSLMHWYHQKPGQQPRLLIYRASNLEAGVPDRFSGSGSKTDFTLTISPVEAEDAATYYCQQSREYPYTFGGGTKLEIKRTVAAPSVFIFPPSDEQLKSGTASVVCLLNNFYPREAKVQWKVDNALQSGNSQESVTEQDSKDSTYSLSSTLTLSKADYEKHKVYACEVTHQGLSSPVTKSFNRGECGGGGSLPETGGLLGDFFRKSKEKIGKEFKRIVQRIKDFLRNLVPRTES
notes: also called anti-folate receptor mAb (mirvetuximab) with LL37 conjugation
B4: binds (folate receptor).

B5: Lifastuzumab-LL37 (LL37-linked anti-NaPi2b mAb) (antibody, human IgG1, kappa)
heavy: not shown
light: DIQMTQSPSSLSASVGDRVTITCRSSETLVHSSGNTYLEWYQQKPGKAPKLLIYRVSNRFSGVPSRFSGSGSGTDFTLTISSLQPEDFATYYCFQGSFNPLTFGQGTKVEIKRTVAAPSVFIFPPSDEQLKSGTASVVCLLNNFYPREAKVQWKVDNALQSGNSQESVTEQDSKDSTYSLSSTLTLSKADYEKHKVYACEVTHQGLSSPVTKSFNRGECGGGGSLPMTGGLLGDFFRKSKEKIGKEFKRIVQRIKDFLRNLVPRTES
B5: binds [4].

B6: Anti-CD33A mAb (Vadastuximab)-LL37 (antibody, human IgG1, kappa)
heavy: not shown
light: DIQMTQSPSSLSASVGDRVTINCKASQDINSYLSWFQQKPGKAPKTLIYRANRLVDGVPSRFSGSGSGQDYTLTISSLQPEDFATYYCLQYDEFPLTFGGGTKVEIKRTVAAPSVFIFPPSDEQLKSGTASVVCLLNNFYPREAKVQWKVDNALQSGNSQESVTEQDSKDSTYSLSSTLTLSKADYEKHKVYACEVTHQGLSSPVTKSFNRGECGGGGSLPMTGGLLGDFFRKSKEKIGKEFKRIVQRIKDFLRNLVPRTES
B6: binds (CD33A).
